Two substances from doi:10.1101/2022.05.30.494040 can be followed below.

One test addresses SNAP25 (human) (UniProt P60880). Description: AlphaScreen or HTRF. (Alpha assays give light when donor and acceptor beads are brought close together.)
Test [1] has as its target Stx3 145-161 peptides (human) (UniProt Q13277). Description: peptide or protein array.
The target in another test is full-length Stx4 (UniProt Q12846). Description: AlphaScreen or HTRF.
Another test deals with full-length Stx2 (human) (UniProt P32856). The test is described as follows: AlphaScreen or HTRF.
In a further test the target is full-length SNAP23 (UniProt O00161). The test is described as follows: AlphaScreen or HTRF.
UniProt O00161, sequence (O00161 whole entry): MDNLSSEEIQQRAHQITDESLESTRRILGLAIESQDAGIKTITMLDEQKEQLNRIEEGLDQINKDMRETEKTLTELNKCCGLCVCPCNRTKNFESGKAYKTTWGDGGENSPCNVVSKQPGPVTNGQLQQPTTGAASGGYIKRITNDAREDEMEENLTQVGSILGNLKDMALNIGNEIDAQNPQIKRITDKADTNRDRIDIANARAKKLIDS

UniProt Q12846, sequence (Q12846 whole entry): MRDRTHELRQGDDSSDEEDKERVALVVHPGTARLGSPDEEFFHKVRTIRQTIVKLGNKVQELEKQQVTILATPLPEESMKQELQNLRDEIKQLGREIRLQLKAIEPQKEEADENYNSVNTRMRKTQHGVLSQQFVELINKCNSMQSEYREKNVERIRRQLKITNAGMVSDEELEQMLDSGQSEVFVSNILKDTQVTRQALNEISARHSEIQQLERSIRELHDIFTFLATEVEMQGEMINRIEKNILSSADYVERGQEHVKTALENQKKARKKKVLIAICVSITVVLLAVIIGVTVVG
UniProt P32856, sequence (P32856 whole entry): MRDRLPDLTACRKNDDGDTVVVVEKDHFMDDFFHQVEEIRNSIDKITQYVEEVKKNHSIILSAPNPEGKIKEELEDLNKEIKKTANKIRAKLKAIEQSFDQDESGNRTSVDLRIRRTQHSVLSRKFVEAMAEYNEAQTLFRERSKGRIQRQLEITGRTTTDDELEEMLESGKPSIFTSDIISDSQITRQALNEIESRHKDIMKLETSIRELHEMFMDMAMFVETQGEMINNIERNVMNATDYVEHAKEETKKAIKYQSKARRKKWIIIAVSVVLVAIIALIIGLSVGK
UniProt P60880, sequence (P60880 whole entry): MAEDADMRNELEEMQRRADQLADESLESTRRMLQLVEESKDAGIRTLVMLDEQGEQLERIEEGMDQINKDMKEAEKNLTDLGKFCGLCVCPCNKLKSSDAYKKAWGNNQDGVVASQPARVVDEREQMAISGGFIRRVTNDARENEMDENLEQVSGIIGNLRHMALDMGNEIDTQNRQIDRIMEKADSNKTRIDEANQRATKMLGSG

What is called EC50 is the concentration needed to bring the measured effect to its halfway point. Lower therefore signals a more potent agent. As to “His-tagged recombinant Gβ1γ2 (from UniProt P62873;P59768) (complex; other documents disagree on this pair)”, in the test with SNAP25 (human), the EC50 came to 45.2 nM.
For “His-tagged recombinant Gβ1γ2 (from UniProt P62873;P59768) (complex)”, the fold weaker binding than Stx2 144-160 in test [1] is 5 fold. Further, the EC50 worked out at 92.1 nM with full-length Stx4, 64.8 nM with full-length Stx2 (human) and 78.2 nM with full-length SNAP23.
